Laboratory results taken from US20230151091A1 (NEW YORK UNIVERSITY, published 2023).

Experiments:
[1] = biological target: T1, mouse MuSK, endogenous (C2C12 myotubes; neuromuscular synapses of mice) (mouse, UniProt Q61006 22-868); experiment: cell-based or functional assay
T1 sequence (looked up): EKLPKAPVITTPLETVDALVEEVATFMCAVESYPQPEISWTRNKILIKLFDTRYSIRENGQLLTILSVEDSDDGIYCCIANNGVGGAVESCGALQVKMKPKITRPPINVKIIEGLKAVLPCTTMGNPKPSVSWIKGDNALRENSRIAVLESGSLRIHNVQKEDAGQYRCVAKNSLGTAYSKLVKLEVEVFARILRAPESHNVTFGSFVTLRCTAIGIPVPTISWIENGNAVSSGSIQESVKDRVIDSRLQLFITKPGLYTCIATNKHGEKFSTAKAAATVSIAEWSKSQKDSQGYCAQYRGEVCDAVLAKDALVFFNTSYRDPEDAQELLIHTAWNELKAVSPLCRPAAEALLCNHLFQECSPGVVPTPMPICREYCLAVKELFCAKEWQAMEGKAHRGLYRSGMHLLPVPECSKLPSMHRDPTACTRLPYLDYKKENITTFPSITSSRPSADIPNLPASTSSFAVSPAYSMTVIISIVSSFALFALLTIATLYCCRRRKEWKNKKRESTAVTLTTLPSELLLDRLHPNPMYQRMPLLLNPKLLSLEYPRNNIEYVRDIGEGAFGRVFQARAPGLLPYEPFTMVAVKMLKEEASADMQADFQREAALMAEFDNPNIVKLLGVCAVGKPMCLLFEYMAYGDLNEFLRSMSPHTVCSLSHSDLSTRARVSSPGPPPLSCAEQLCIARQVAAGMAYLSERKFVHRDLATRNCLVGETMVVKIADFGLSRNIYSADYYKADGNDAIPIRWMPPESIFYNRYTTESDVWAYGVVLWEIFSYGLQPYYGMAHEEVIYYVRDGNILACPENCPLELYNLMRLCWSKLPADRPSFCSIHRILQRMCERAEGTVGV

cynomolgus monkey MuSK = cynomolgus monkey MuSK (cynomolgus monkey, UniProt A0A2K5USF6 24-487); experiment: Biacore, MuSK on chip, association pH 7.4, dissociation pH 5.5
Chain of cynomolgus monkey MuSK (A0A2K5USF6 entry or part of it): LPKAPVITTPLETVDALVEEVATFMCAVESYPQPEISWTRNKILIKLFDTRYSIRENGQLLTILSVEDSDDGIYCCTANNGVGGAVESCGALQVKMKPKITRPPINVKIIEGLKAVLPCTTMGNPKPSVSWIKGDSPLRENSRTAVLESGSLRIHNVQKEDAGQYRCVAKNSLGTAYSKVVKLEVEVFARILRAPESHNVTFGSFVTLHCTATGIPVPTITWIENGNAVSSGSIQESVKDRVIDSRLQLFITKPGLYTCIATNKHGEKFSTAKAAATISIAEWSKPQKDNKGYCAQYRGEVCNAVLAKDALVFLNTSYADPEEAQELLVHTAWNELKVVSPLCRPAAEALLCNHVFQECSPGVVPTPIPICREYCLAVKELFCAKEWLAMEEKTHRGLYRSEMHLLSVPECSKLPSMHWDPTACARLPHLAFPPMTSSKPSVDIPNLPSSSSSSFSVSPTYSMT
Procedure, shortened: (§1)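 MuSK was immobilized on the sensor chip at 200 RU, and antibody was injected at 66.7 nM. Association ran at pH 7.4 and dissociation at pH 5.5, and kinetic parameters were calculated from the sensorgrams.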

rat MuSK = biological target: T2, rat MuSK (rat, UniProt Q62838 22-494, limits assumed); experiment: as above
T2 construct: Coated on Biacore chip (200RU) or ELISA plate
T2 sequence (looked up): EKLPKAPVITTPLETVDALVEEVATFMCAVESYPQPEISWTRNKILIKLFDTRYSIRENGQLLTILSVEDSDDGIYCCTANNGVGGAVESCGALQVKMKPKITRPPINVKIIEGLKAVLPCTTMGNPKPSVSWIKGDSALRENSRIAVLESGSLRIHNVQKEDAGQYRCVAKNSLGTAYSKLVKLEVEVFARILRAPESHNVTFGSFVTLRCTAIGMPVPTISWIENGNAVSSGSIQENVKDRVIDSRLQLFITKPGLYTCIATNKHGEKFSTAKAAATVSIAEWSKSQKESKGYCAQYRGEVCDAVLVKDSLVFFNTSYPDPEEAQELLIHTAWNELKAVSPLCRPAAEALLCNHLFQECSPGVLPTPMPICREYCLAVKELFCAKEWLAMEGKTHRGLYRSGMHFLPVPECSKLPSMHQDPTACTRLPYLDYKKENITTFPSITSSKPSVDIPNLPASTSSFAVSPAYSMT
Procedure, shortened: as §1

mouse MuSK = biological target: T3, mouse MuSK (mouse, UniProt Q61006 22-494, limits assumed); experiment: as above
T3 construct: Coated on ELISA plates or on the Biacore chip; also called full length mouse MuSK; mouse MuSK (in house produced in HEK293 cells)
T3 sequence (looked up): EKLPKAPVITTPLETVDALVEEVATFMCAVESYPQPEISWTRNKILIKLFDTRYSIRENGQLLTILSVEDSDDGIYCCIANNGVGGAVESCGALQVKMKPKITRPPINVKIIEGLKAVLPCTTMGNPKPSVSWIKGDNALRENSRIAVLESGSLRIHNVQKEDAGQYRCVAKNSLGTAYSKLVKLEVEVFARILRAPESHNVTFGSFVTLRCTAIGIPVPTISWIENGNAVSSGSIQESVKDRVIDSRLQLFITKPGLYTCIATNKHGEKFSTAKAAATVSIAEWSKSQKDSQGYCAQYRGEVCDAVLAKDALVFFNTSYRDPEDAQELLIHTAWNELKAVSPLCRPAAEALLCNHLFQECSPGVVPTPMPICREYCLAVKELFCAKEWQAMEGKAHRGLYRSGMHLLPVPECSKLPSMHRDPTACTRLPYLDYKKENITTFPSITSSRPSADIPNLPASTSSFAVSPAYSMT
Procedure, shortened: as §1

% Phosphorylation Induced in C2C12 Mouse Assay, Assay 1 [1]: 74 % versus agrin | % Phosphorylation Induced in C2C12 Mouse Assay, Assay 2 [1]: 94 % versus agrin | % Phosphorylation Induced in C2C12 Mouse Assay, Assay 3 [1]: 64 % versus agrin | % Phosphorylation Induced in C2C12 Mouse Assay, Average [1]: 77 % versus agrin | R0 (cynomolgus monkey MuSK): 149 RU | koff (cynomolgus monkey MuSK): 0.00317 s⁻¹ | kon (cynomolgus monkey MuSK): 740000 M⁻¹ s⁻¹ | R0 (rat MuSK): 174 RU | koff (rat MuSK): 0.0062 s⁻¹ | kon (rat MuSK): 980000 M⁻¹ s⁻¹ | R0 (mouse MuSK): 194 RU | koff (mouse MuSK): 0.00296 s⁻¹ | kon (mouse MuSK): 1.05e+06 M⁻¹ s⁻¹
B1: 3B2 (antibody, V domains shown)
VH: ELQLVESGGGLVQPGGSLRLSCAASGFTFDDYGMSWVRQAPGKGLEWVSAIPWNGGSTYYKESVKGRFTISRDNAKKTLYLQMNSLKSEDTAVYYCAKRSGRIAFGALDAWGQGTLVTVSS
VL: QAVVTQEPSLSVSPGGTVTLTCGLSSGSVTSSNYPDWYQQTPGQAPRGLIYSTDSRHSGVPSRFSGSISGNKAALTITGAQSEDEADYYCGLYMYSGSKNYVFGGGTKLTVL
notes: human IgG1 with the LALA mutations (L234A, L235A); produced in HEK293 cells; also called 3B2 mAb; parental 3B2 Ab
